EP0904107B1

What was measured:
[1] = target: FcRn of the neonatal mouse intestine (mouse) (UniProt Q61559); assay: cell-based or functional assay
[2] = target: recombinant soluble mouse FcRn (mouse) (UniProt Q61559); assay: inhibition of 125I-sFcRn binding to murine IgG1-Sepharose; molar ratio of inhibitor/FcRn 1/500
[3] = target: recombinant soluble mouse FcRn (mouse) (UniProt Q61559); assay: inhibition of 125I-sFcRn binding to murine IgG1-Sepharose; molar ratio of inhibitor/FcRn 1/1000
[4] = target: recombinant soluble mouse FcRn (mouse) (UniProt Q61559); assay: SPR (BIAcore 2000), FcRn immobilised on CM5 chip, purified Fc-hinge fragment in flow, pH 6.0

Substance	Inhibition of transmission (%) [1]	% inhibition [2]	% inhibition [3]	Kd [4]	koff [4]	kon [4]
HQ-310/HN-433 mutant Fc-hinge fragment	5.4%	0.2%	4%			
I-253 mutant Fc-hinge fragment	20.2%	2.3%	6.5%			
wild type (WT) Fc-hinge fragment derived from murine IgG1	55.3%	18.4%	34.1%	7.44 nM	0.00461 s⁻¹	620000 M⁻¹ s⁻¹
HQ-310 mutant Fc-hinge fragment	8.9%					
Fc fragment produced by papain digestion of murine IgG1 (from UniProt P01868 98-324)	62.5%					
bovine serum albumin (from UniProt P02769 25-607)	8.9%					

The next lines start with the values.

Inhibition of transmission (%) [1]	% inhibition [2]	% inhibition [3]	Kd [4]	koff [4]	kon [4]	Substance
21.5%						Fc-hybrid: heterodimer of WT Fc-hinge and HQ-310/HN-433 mutant
44.4%						HN-433 mutant Fc-hinge fragment
51.4%	24.7%	45.6%				murine IgG1 (complete glycosylated IgG1 molecule) (antibody)
